How the values were obtained:
[1] = target: dopamine D2 receptor, long isoform, p.Ile212Phe variant (UniProt P14416); assay: FRET or BRET; HEK293 cells 48 hours after transfection, in phosphate-buffered saline with 0.1 mM CaCl2 and 0.5 mM MgCl2, ~100,000 cells/well; quinpirole (20-minute stimulation) followed by coelenterazine h at room temperature; agonist-induced recruitment, expressed as percentage of maximum recruitment by D2-WT
[2] = target: dopamine D2 receptor, short isoform, p.Ile212Phe variant (UniProt P14416); assay: as above

maximal recruitment, percent of that by D2L-WT [1]: 48% | maximal recruitment, percent of that by D2S-WT [2]: 68%
Substance: arrestin3 (from UniProt P32121 1-409) (natural protein)

Source: PMC8049080
